Experimental findings from patent US20260055176A1 (SURFACE ONCOLOGY, published 2026) are described below.

The target in test [1] is T1, recombinant human IL-27 (human, UniProt Q14213 21-229; Q8NEV9 29-243).
T1 sequence 1: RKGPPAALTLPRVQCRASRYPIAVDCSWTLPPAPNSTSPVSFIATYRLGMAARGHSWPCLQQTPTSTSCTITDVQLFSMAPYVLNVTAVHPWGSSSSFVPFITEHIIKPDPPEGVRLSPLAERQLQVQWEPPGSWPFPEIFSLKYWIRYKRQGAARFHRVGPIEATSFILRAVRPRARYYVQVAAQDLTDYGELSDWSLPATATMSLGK
T1 sequence 2: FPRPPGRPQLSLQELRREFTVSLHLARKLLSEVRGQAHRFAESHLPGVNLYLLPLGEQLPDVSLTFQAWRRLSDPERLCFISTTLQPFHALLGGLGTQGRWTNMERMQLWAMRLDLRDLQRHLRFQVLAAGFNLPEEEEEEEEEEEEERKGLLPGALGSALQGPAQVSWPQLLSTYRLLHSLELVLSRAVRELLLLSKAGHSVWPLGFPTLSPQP
Briefly: cell-based or functional assay.

The target in test [2] is T1, recombinant human IL-27. Kind of test: SPR (Biacore T200), hIL-27 immobilised on CM5, single cycle kinetics. On the procedure:
The antibodies were further characterized by surface plasmon resonance (SPR). Kinetic experiments were performed on a Biacore T200 (GE Healthcare, Uppsala, Sweden). All experiments were run at 25° C. with HBS-P+running buffer (pH 7.4) (GE Healthcare, Little Chalfont, UK) using hIL-27 (R&D Systems, Abingdon, UK). Human IL-27 (hIL-27) antigen was captured on a CM5 chip to ˜ 16 RU. Immobilization was carried out at a protein concentration of 1 μg/mL in 10 mM acetate buffer pH 5.0. A three point, three-fold dilution range from 3.3 nM to 30 nM of antibody diluted in HBS-P+buffer without regeneration between each concentration was used. The association phase for the three injections of increasing concentrations of antibody was monitored for 75 seconds each time and a single dissociation phase was measured for 250 seconds following the last injection of antibody. Regeneration of the hIL-27 surface was conducted using a single injection of 2M MgCl₂ for 120s. Multiple repeats (n=4) of the chimeric antibody were performed throughout the assay to check the stability of the surface and analyte over the kinetic cycles.
(Surface plasmon resonance follows binding to a sensor surface in real time, without labels.)

Test [3] concerns the target T1, recombinant human IL-27. Briefly: MSD sandwich immunoassay: named antibody coated as capture (0.5 ug/mL), recombinant human IL-27 500 ng/mL, biotinylated SRF381 as detection, SULFO-TAG streptavidin. As for the experimental part: The ability of anti-IL-27 antibodies to pair with the anti-p28 antibody SRF381 to detect recombinant human IL-27 was assessed by sandwich MSD Immunoassay. Briefly, MSD QUICKPLEX 96-well plates (Meso Scale Discovery L55XA) were coated with 50 μL/well anti-IL-27 antibodies (0.5 μg/mL diluted in PBS) sealed and incubated overnight at 4° C. Plates were washed 3 times with 150 μL/well of wash buffer (PBS+0.01% Tween). Plates were then blocked with 200 μL/well of blocking buffer (PBS+1% BSA+0.01% Tween) for 1 hour at room temperature (RT) with shaking. Blocking buffer was decanted, plates were washed 3 times with 150 μL/well of wash buffer, and 50 μL/well recombinant human IL-27 (R&D Systems 2526-IL/CF) (500 ng/mL diluted in blocking buffer) was added to each well for 2 hours at RT with shaking. Plates were washed 3 times with 150 μL/well of wash buffer, and 50 μL biotinylated SRF381 (diluted 0.5 μg/mL in blocking buffer) was added to each well for 1 hour at RT with shaking. […] Plates were washed 3 times with 150 μL/well of wash buffer and 150 μL of MSD read buffer (Meso Scale Discovery R92TC-1) (diluted to 2X in deionized water) was added to each well and plates were read on a MESO QUICKPLEX SQ120.

B1: SRF381 (antibody, V domains shown)
VH: EVQLVESGGGLVKPGGSLRLSCAASGFTFRSYGMNWVRQAPGKGLEWVSSISSSSSYIYYADSVKGRFTISRDNAKNSLYLQMNSLRAEDTAVYYCARDGGRTSYTATAHNWFDPWGQGTLVTVSS
VL: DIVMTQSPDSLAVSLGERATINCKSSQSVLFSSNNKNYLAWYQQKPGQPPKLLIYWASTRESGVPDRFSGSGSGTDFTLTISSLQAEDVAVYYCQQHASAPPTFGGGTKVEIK
As for B1, in test [1], the “IC50 of inhibition of IL-27-mediated phosphorylation of STAT1 in HUT-78 cells” value stood at 0.08 µg/mL, the “IC50 of inhibition of IL-27-mediated phosphorylation of STAT1 in U937 cells” value is 0.081 µg/mL and the “IC50 of inhibition of IL-27-mediated phosphorylation of STAT1 in pooled human PBMCs” value was determined as 0.141 µg/mL.

B2: SRF388 (antibody, V domains shown)
VH: EVQLVESGGGLVKPGGSLRLSCAASGFTFRSYGMNWVRQAPGKGLEWVSGISSSGSYIYYADSVKGRFTISRDNAKNSLYLQMNSLRAEDTAVYYCARDGGRTSYTATAHNWFDPWGQGTLVTVSS
VL: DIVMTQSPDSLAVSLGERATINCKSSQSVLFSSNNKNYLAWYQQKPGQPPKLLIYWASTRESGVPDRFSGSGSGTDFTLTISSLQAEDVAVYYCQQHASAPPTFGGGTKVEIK
For B2, in test [1], the “IC50 of inhibition of IL-27-mediated phosphorylation of STAT1 in HUT-78 cells” value was 0.095 µg/mL, the “IC50 of inhibition of IL-27-mediated phosphorylation of STAT1 in U937 cells” value was found to be 0.096 µg/mL and the “IC50 of inhibition of IL-27-mediated phosphorylation of STAT1 in pooled human PBMCs” value came to 0.0583 µg/mL.

B3: Ab7.7 (antibody, human IgG1, kappa, V domains shown)
VH: EVKLVESGGGLVQPGGSLRLSCAASGFTFTSYSMSWVRQAPGKGLEWVAYISYDGGSAYYPDTVKGRFTISRDNSKKTLYLQMSSLKSEDTAMYYCARHGDYDDDDAMDYWGQGTSVTVSS
VL: DIQMTQSPSSLSASVGDRVTITCRASENIYSYLNWYQQKPGKAPKLLVYNAETLTEGVPSRFSGSGSGTDFTLTISSLQPEDFATYYCQHHYGTPLTFGQGTKLEIKR
notes: humanized, human IgG1 / kappa; Ab7-VL4 variant; also called Ab7-VH1-IgG1 + Ab7-VL4-Kappa
In the case of B3, the binding result in test [2] is reported as “no binding (tested: 30 nM)”.

B4: Ab7.11 (antibody, human IgG1, kappa, V domains shown)
VH: EVQLVESGGGLVQPGGSLRLSCAASGFTFTSYSMSWVRQAPGKGLEWVAYISYDGGSAYYPDTVKGRFTISRDNSKNTLYLQMSSLKSEDTAMYYCARHGDYDDDDAMDYWGQGTLVTVSS
VL: DIQMTQSPSSLSASVGDRVTITCRASENIYSYLNWYQQKPGKAPKLLVYNAETLTEGVPSRFSGSGSGTDFTLTISSLQPEDFATYYCQHHYGTPLTFGQGTKLEIKR
notes: humanized, human IgG1 / kappa; Ab7-VL4 variant; also called Ab7-VH2-IgG1 + Ab7-VL4-Kappa
With B4, in test [2], the binding result is reported as “no binding (tested: 30 nM)”.

B5: Ab7.15 (antibody, human IgG1, kappa, V domains shown)
VH: EVKLVESGGGLVQPGGSLRLSCAASGFTFTSYSMSWVRQAPGKGLEWVAYISYDGGSAYYPDTVKGRFTISRDNSKKTLYLQMNSLRAEDTAVYYCARHGDYDDDDAMDYWGQGTLVTVSS
VL: DIQMTQSPSSLSASVGDRVTITCRASENIYSYLNWYQQKPGKAPKLLVYNAETLTEGVPSRFSGSGSGTDFTLTISSLQPEDFATYYCQHHYGTPLTFGQGTKLEIKR
notes: humanized, human IgG1 / kappa; Ab7-VL4 variant; also called Ab7-VH3-IgG1 + Ab7-VL4-Kappa
For B5, in test [2], the binding result is recorded as “no binding (tested: 30 nM)”.

B6: Ab7.19 (antibody, human IgG1, kappa, V domains shown)
VH: EVQLVESGGGLVQPGGSLRLSCAASGFTFTSYSMSWVRQAPGKGLEWVAYISYDGGSAYYPDTVKGRFTISRDNSKNTLYLQMNSLRAEDTAVYYCARHGDYDDDDAMDYWGQGTLVTVSS
VL: DIQMTQSPSSLSASVGDRVTITCRASENIYSYLNWYQQKPGKAPKLLVYNAETLTEGVPSRFSGSGSGTDFTLTISSLQPEDFATYYCQHHYGTPLTFGQGTKLEIKR
notes: humanized, human IgG1 / kappa; Ab7-VL4 variant; also called Ab7-VH4-IgG1 + Ab7-VL4-Kappa
For the molecule B6, in test [2], the binding result is “no binding (tested: 30 nM)”.

B7: Ab7.23 (antibody, human IgG1, kappa, V domains shown)
VH: EVQLVESGGGLVQPGGSLRLSCAASGFTFTSYSMSWVRQAPGKGLEWVSYISYDGGSAYYPDTVKGRFTISRDNSKNTLYLQMNSLRAEDTAVYYCARHGDYDDDDAMDYWGQGTLVTVSS
VL: DIQMTQSPSSLSASVGDRVTITCRASENIYSYLNWYQQKPGKAPKLLVYNAETLTEGVPSRFSGSGSGTDFTLTISSLQPEDFATYYCQHHYGTPLTFGQGTKLEIKR
notes: humanized, human IgG1 / kappa; Ab7-VL4 variant; also called Ab7-VH5-IgG1 + Ab7-VL4-Kappa
Turning to B7, in test [2], the binding result was “no binding (tested: 30 nM)”.

B8: SRF605 (antibody, V domains shown)
VH: QVQLQESGPGLVKPSQTLSLTCTVSGGSISSGGYYWSWIRQHPGKGLEWIGNIYYSGSTYYNPSLKSRVTISVDTSKNQFSLKLSSVTAADTAVYYCARDGVYQPGAYYWGQGTLVTVSS
VL: DIQLTQSPSSVSASVGDRVTITCRASQGISSWLAWYQQKPGKAPKLLIYGASSLQSGVPSRFSGSGSGTDFTLTISSLQPEDFATYYCQQGVSFPITFGGGTKVEIKR
notes: also called SRF605-A; SRF605-B
Regarding B8, the binding result in test [3] is listed as “binds”.
